The supplement of paper PMC10065799, “High-throughput profiling of sequence recognition by tyrosine kinases and SH2 domains using bacterial peptide display” (eLife, 2023)

Assays:
Grb2 SH2 = Grb2 SH2 (UniProt P62993); experiment: SH2 binding enrichment of the phosphorylated peptide, bacterial display (enrichment ratio); higher = better substrate or ligand; peptides without Tyr show the background
SHP2-C SH2 = experiment: as above
c-Src SH2 = experiment: as above
Hck = Hck (UniProt P08631); experiment: phosphorylation enrichment, bacterial display (enrichment ratio); higher = better substrate or ligand; peptides without Tyr show the background
Hck, sequence (P08631 whole entry, looked up): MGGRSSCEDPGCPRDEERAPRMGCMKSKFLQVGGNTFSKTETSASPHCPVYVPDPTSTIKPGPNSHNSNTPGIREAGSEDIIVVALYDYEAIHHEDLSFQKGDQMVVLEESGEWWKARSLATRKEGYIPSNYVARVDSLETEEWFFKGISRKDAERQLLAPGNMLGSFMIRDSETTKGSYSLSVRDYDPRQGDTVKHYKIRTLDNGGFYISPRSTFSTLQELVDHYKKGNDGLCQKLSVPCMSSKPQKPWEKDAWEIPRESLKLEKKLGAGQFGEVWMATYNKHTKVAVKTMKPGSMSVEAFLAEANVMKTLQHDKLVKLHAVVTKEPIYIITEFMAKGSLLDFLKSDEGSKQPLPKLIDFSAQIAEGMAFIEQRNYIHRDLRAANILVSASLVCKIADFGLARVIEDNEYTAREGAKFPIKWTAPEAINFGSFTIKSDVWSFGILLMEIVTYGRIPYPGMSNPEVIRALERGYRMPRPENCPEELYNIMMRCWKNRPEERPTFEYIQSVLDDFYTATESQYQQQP

FGFR3 = FGFR3 (UniProt P22607); experiment: as above
c-Src = experiment: as above
Fer (mouse) = experiment: as above
MERTK = MERTK (UniProt Q12866); experiment: as above
MERTK, sequence (Q12866 whole entry, looked up): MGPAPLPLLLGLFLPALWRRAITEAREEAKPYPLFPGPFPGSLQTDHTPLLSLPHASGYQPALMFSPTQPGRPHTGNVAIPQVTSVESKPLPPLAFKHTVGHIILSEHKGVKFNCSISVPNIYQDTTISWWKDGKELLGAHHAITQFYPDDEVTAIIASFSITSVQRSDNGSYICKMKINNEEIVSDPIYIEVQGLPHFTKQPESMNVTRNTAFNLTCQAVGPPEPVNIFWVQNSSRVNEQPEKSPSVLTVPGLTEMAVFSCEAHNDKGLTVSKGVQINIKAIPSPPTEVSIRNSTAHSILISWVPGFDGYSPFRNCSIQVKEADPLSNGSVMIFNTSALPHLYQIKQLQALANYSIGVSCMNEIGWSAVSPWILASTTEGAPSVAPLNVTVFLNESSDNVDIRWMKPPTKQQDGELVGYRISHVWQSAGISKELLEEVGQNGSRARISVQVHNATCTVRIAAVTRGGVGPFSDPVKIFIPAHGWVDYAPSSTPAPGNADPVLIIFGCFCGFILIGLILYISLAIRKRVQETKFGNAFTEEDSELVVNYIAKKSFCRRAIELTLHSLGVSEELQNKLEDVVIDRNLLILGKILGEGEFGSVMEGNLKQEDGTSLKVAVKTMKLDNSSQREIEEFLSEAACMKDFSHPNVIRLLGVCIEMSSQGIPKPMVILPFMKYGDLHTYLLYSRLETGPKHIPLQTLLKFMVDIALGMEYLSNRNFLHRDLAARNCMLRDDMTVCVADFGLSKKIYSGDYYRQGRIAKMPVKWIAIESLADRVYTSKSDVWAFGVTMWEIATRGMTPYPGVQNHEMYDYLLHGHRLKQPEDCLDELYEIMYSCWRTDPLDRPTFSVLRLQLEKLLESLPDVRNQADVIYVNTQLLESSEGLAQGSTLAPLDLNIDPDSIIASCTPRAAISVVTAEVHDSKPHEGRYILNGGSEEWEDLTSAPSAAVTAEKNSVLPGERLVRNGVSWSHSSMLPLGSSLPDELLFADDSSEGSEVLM

EPHB1 = EPHB1 (UniProt P54762); experiment: as above
EPHB1, sequence (P54762 whole entry, looked up): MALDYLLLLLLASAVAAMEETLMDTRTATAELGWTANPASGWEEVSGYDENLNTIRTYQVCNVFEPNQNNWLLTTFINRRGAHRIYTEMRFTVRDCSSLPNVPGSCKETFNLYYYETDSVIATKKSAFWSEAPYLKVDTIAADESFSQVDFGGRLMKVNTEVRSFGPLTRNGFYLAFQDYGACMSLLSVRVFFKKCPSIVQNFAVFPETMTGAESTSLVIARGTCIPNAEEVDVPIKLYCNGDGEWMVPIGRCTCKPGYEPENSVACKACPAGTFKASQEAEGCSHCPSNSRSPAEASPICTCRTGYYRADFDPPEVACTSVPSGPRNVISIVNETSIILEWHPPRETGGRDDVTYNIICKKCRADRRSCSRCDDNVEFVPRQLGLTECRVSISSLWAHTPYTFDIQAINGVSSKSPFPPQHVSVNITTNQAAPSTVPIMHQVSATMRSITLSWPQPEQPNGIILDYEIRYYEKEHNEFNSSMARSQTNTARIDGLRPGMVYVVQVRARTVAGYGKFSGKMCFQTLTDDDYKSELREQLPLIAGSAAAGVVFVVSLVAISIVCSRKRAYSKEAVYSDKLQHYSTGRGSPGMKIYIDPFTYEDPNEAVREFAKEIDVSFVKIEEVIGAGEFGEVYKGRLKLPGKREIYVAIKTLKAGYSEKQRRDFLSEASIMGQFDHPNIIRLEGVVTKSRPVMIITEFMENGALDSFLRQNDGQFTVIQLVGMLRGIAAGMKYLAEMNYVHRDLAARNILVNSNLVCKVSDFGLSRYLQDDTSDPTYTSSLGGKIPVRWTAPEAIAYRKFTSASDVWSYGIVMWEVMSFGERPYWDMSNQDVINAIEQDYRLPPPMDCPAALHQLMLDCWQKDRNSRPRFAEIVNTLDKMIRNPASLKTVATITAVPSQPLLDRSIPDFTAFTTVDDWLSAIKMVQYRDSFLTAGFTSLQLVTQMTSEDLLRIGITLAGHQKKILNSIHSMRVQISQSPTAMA

Jak2 = Jak2 (UniProt O60674); experiment: as above
Jak2, sequence (O60674 whole entry, looked up): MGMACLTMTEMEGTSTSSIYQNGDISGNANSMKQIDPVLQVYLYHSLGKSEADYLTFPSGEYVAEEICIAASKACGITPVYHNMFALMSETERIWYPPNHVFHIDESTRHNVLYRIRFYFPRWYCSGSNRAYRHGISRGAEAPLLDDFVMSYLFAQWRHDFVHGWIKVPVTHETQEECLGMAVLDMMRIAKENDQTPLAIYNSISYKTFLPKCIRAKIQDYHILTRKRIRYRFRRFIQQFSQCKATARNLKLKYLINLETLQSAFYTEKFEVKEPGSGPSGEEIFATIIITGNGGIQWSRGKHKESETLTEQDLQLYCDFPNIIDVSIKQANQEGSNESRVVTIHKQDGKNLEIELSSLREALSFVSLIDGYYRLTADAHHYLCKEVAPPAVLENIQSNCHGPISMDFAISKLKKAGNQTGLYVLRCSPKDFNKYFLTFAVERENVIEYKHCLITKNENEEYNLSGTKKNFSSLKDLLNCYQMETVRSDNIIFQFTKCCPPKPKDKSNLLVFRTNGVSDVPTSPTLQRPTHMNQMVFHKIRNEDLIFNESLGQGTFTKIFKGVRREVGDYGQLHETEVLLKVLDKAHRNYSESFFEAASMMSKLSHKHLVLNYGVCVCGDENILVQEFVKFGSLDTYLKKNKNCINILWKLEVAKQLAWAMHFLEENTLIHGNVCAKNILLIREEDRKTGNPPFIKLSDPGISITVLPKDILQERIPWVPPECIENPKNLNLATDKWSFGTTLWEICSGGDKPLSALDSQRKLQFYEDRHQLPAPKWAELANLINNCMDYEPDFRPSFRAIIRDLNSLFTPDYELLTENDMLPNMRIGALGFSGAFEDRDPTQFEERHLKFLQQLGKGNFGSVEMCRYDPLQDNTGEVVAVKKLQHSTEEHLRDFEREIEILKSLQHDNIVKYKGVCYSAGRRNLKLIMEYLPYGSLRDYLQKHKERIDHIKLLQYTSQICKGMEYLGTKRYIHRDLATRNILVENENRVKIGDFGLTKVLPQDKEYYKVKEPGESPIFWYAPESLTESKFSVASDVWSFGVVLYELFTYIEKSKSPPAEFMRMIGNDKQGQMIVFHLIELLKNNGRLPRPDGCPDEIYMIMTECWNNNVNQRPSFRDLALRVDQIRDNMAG

AncSZ = experiment: as above
Fyn = Fyn (UniProt P06241); experiment: as above
Fyn, sequence (P06241 whole entry, looked up): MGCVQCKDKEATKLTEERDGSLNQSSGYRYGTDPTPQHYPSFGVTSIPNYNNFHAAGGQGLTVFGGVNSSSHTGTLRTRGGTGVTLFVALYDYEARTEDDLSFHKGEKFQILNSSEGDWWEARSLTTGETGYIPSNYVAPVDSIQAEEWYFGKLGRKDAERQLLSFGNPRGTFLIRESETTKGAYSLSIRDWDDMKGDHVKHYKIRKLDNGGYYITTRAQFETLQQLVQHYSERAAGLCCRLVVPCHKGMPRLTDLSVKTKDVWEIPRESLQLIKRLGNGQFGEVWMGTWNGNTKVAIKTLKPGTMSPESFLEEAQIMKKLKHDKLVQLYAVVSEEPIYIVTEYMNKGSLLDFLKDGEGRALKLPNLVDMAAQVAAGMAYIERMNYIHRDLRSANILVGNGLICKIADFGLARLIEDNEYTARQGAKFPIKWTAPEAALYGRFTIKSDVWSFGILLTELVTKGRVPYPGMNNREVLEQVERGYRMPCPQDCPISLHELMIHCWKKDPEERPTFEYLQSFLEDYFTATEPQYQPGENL

Fes = Fes (UniProt P07332); experiment: as above
FGFR1 = FGFR1 (UniProt P11362); experiment: as above
c-Abl (mouse) = experiment: as above
EPHB2 = EPHB2 (UniProt P29323); experiment: as above
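Wherever SH2 binding enrichment of the phosphorylated peptide, bacterial display is given: peptide library displayed on the E. coli surface as eCPX fusions, selected cells deep-sequenced, score is each peptide's frequency after selection divided by its frequency in the input.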
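Wherever phosphorylation enrichment, bacterial display is given: 11-residue human phosphosite peptides and single-mutation variants displayed on the E. coli surface, counted by deep sequencing, each peptide's frequency after selection divided by its frequency in the unselected input library; frequency after pTyr selection over input frequency; kinase dosed for 20-30% of maximal phosphorylation in three min.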

Grb2 SH2, sequence (P62993 whole entry, looked up): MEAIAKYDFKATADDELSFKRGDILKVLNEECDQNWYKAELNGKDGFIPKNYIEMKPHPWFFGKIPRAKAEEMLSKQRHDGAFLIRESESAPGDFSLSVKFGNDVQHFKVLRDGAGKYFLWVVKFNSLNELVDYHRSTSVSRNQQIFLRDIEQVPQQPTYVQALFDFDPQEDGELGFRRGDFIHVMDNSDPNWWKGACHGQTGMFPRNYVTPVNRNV

Row | Sequence | SH2 binding enrichment (Grb2 SH2) | SH2 binding enrichment (SHP2-C SH2) | SH2 binding enrichment (c-Src SH2) | phosphorylation enrichment (Hck) | phosphorylation enrichment (FGFR3) | phosphorylation enrichment (c-Src) | phosphorylation enrichment (Fer (mouse)) | phosphorylation enrichment (MERTK) | phosphorylation enrichment (EPHB1) | phosphorylation enrichment (Jak2) | phosphorylation enrichment (AncSZ) | phosphorylation enrichment (Fyn) | phosphorylation enrichment (Fes) | phosphorylation enrichment (FGFR1) | phosphorylation enrichment (c-Abl (mouse)) | phosphorylation enrichment (EPHB2)
1 | KNKELYSDLFD [PDE10A_Y300] | 1.04 | 0.715 | 1.15 | 0.958 | 0.66 | 0.6 | 1.84 | 1.35 | 1.03 | 0.898 | 1.13 | 0.68 | 1.14 | 0.556 | 0.918 | 0.794
2 | KQELVYTNKKL [OPTN_Y356] | 0.781 | 0.803 | 0.4 | 0.734 | 0.474 | 0.836 | 0.571 | 0.594 | 0.496 | 0.791 | 0.69 | 0.441 | 0.675 | 0.47 | 0.759 | 0.561
3 | KRIETYFSKNY [PLP1_Y50_L46R] | 0.787 | 0.71 | 0.502 | 0.484 | 0.504 | 0.384 | 0.377 | 0.392 | 0.427 | 0.661 | 0.658 | 0.374 | 0.748 | 0.436 | 0.532 | 0.365
4 | KRLKDYLTVLQ [USP25_Y425] | 0.933 | 0.573 | 0.569 | 0.322 | 0.522 | 0.403 | 0.431 | 0.352 | 0.422 | 0.625 | 0.679 | 0.349 | 0.664 | 0.506 | 0.783 | 0.412
5 | KSLFHYRQYSA [CPS1_Y1491] | 0.749 | 0.521 | 0.379 | 0.512 | 0.646 | 0.493 | 0.408 | 0.469 | 0.527 | 0.686 | 0.778 | 0.54 | 0.808 | 0.531 | 0.567 | 0.602
6 | KSSDVYVSYDY [SORL1_Y136] | 0.729 | 0.768 | 1.18 | 2.18 | 2.64 | 4.15 | 0.914 | 1.97 | 1.38 | 1.08 | 1.16 | 5.35 | 1.07 | 4.12 | 0.712 | 1.92
7 | KTTSGYAGGLS [KRT8_Y419] | 1.32 | 0.617 | 0.431 | 0.289 | 0.376 | 0.369 | 0.422 | 0.3 | 0.332 | 0.373 | 0.404 | 0.33 | 0.496 | 0.398 | 0.456 | 0.304
8 | KVALLYKPYFY [POLE_Y100_P99L] | 1.43 | 1.44 | 1.36 | 0.514 | 0.693 | 0.737 | 0.474 | 0.473 | 0.605 | 0.977 | 0.987 | 0.457 | 1.11 | 0.483 | 0.866 | 0.483
9 | KVGPGYLGSGG [RET_Y826] | 0.685 | 0.583 | 0.44 | 0.315 | 0.392 | 0.368 | 0.365 | 0.423 | 0.287 | 0.457 | 0.438 | 0.42 | 0.451 | 0.334 | 0.399 | 0.377
10 | KYLENYYDLEK [MMP3_Y41_K45E] | 0.702 | 0.736 | 1.08 | 1.83 | 6.66 | 2.2 | 0.664 | 0.819 | 9.73 | 1.2 | 1.64 | 5.37 | 1.3 | 8.94 | 0.818 | 4.75
11 | LAARFYNWVSF [FLT4_Y1231_YF] | 1.26 | 1.61 | 1.25 | 0.476 | 1.56 | 0.82 | 2.55 | 1.02 | 0.69 | 1.1 | 1.44 | 0.51 | 1.55 | 1.27 | 0.988 | 0.605
12 | LDLSYYPTSSS [EMD_Y182] | 0.853 | 0.66 | 1.24 | 0.947 | 3.28 | 0.72 | 0.835 | 0.955 | 1.21 | 5.02 | 2.17 | 0.762 | 1.81 | 3.94 | 1.41 | 1.18
13 | LDMSQYFRLFN [CPT2_Y217] | 1.23 | 2.02 | 0.669 | 0.885 | 1.62 | 0.601 | 0.613 | 0.755 | 0.539 | 4.15 | 1.1 | 0.959 | 1.55 | 2.15 | 0.92 | 0.531
14 | LDTIQYSKHPP [SQSTM1_Y433] | 0.652 | 0.771 | 0.408 | 0.695 | 1.08 | 0.649 | 0.583 | 0.792 | 0.778 | 1.07 | 1.01 | 0.917 | 1.73 | 0.6 | 0.75 | 0.998
15 | LEEFQYIGELQ [MSH2_Y856_S860L] | 1.16 | 0.986 | 0.591 | 0.908 | 1.08 | 0.738 | 0.656 | 0.716 | 0.892 | 2.39 | 1.92 | 0.718 | 2.04 | 0.793 | 1.33 | 0.788
16 | LEFAKYGSLRG [RET_Y809_V804L_YF] | 0.907 | 0.73 | 0.505 | 0.567 | 0.459 | 0.43 | 0.373 | 0.388 | 0.37 | 0.593 | 0.567 | 0.398 | 0.644 | 0.316 | 0.454 | 0.792
